Paper PMC7613635 (Nature structural & molecular biology, 2022)

Key:
[1] = biological target: T1, Gallus gallus FANCD2 (Gallus gallus (chicken), UniProt Q68Y81 1-1439); test: cross-linking
[2] = biological target: T1, Gallus gallus FANCD2; test: cryo-EM structure

T1 sequence (Q68Y81 whole entry): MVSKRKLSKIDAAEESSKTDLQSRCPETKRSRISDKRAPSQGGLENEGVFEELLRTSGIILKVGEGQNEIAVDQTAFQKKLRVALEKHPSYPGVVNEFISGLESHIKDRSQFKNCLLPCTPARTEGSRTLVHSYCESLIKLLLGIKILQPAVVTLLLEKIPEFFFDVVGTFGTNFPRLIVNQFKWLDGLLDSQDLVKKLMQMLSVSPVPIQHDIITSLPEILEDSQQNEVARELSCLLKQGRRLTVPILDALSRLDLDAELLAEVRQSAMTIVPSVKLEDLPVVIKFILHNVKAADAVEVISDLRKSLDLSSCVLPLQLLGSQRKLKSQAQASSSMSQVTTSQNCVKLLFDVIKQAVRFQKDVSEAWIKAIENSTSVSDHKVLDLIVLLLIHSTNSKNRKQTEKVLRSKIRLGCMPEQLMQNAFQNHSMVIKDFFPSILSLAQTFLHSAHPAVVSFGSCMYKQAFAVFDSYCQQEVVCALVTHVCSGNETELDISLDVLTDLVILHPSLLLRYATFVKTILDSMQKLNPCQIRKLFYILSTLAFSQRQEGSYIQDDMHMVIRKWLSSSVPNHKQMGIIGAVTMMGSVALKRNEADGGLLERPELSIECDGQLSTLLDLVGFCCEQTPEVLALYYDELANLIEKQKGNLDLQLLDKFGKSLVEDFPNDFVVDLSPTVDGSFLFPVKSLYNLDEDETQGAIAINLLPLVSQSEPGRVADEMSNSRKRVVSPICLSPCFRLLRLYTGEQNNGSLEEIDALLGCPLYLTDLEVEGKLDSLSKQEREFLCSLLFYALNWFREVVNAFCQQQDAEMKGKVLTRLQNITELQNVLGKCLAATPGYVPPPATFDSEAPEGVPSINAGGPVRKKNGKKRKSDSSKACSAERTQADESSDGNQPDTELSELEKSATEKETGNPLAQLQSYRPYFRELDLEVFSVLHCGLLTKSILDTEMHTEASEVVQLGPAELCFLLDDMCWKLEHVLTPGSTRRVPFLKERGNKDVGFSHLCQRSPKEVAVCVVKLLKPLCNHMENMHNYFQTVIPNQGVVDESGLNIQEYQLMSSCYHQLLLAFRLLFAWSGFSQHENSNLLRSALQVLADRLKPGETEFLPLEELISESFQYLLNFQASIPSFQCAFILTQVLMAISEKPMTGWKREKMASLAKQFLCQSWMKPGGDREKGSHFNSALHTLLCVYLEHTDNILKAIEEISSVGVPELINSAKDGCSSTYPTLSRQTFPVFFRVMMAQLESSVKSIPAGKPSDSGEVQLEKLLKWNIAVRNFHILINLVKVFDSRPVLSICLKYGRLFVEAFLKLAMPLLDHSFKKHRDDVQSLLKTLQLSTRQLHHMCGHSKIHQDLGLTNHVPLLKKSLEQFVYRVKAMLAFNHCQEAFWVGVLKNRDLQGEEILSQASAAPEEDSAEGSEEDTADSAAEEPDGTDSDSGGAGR

| Binder | binding result [1] | binding result [2] |
| --- | --- | --- |
| Gallus gallus FANCI, wild type (natural protein, Gallus gallus (chicken), UniProt B0I564 1-1338, looked up) MAQRILQLAAEGSPERLQEALQGLTEGELGDMVTRQALRGRETAALLKGIFKGSPCSQQSGVLRRLQVYKHCVSLVESGDLHVGKVSEIIGLLMLEARQLPGHALAELATLFVEVIKRGSLSNGKSLELFSTVLTALSNSKESLAYGKGELNGEEFKKQLINTLCSSKWDPQCVIHLANMFRDIPLSGEELQFVVEKVLRMFSKLDLQEIPPLVYQLLLLSAKGSKKTVLEGIISFFNQLDKRQKEEQRVPQSADLEVATVPLDQLRHVEGTVILHIVSAINLDQDIGEELIKHLKTEQQKDPGKALCPFSVSLLLSTAVKHRLQEQIFDFLKTSITRSCKDLQILQASKFLQDLCPQQYDVTAVILEVVKNSAFGWDHVTQGLVDLGFSLMESYEPKKSFGGKAAETNLGLSKMPAQQACKLGASILLETFKVHEPIRSDILEQVLNRVLTKAASPVSHFIDLLSNIVVSAPLVLQNSSSRVTETFDNLSFLPIDTVQGLLRAVQPLLKVSMSVRDSLILVLQKAIFSRQLDARKAAVAGFLLLLRNFKILGSLTSSQCSQAIGATQVQADVHACYNSAANEAFCLEILGSLRRCLSQQADVRLMLYEGFYDVLRRNSQLASSIMETLLSQIKQYYLPQQDLLPPLKLEGCIMAQGDQIFLQEPLAHLLCCIQHCLAWYKSTVHLCKGAEDEEEEEDVGFEQNFEEMLESVTRRMIKSELEDFELDKSADFSPSSGVGVKNNIYAIQVMGICEVLIEYNFKIGNFSKNKFEDVLGLFTCYNKLSEILKEKAGKNKSTLGNRIARSFLSMGFVSTLLTALFRDNAQSHEESLAVLRSSTEFMRYAVSVALQKVQQLEEMGQTDGPDGQNPEKMFQNLCKITRVLLWRYTSIPTAVEESGKKKGKSISLLCLEGLLRIFNTMQQLYAARIPQFLQALDITDGDAEEADINVTEKAAFQIRQFQRSLVNQLSSAEDDFNSKETQLLITILSTLSKLLDPGSQQFLQFLTWTVKICKENALEDLSCCKGLLTLLFSLHVLYKSPVSLLRELAQDIHACLGDIDQDVEIESRSHFAIVNVKTAAPTVCLLVLGQADKVLEEVDWLIKRLTILGSDTSEDSTQASNQTQALEKGVILQLGTLLTVFHELVQTALPAGSCVDSLLRSLSKTYAILTSLIKHYIQACRSTSNTVPGRLEKLVKLSGSHLTPQCYSFITYVQNIHSESLSFAEEKKKKKKEDETAVVSTVMAKVLRDTKPIPNLIFAIEQYEKFLIHLSKKSKVNLMQYMKLSTSRDFRINASMLDSVLQEQNTEDAENEPDNNQSGTAEQPDENQEPQKKRRRKK | binds |  |
| phosphomimetic chicken FANCI (I^3D) (natural protein, Gallus gallus (chicken), UniProt B0I564 1-1338, looked up) MAQRILQLAAEGSPERLQEALQGLTEGELGDMVTRQALRGRETAALLKGIFKGSPCSQQSGVLRRLQVYKHCVSLVESGDLHVGKVSEIIGLLMLEARQLPGHALAELATLFVEVIKRGSLSNGKSLELFSTVLTALSNSKESLAYGKGELNGEEFKKQLINTLCSSKWDPQCVIHLANMFRDIPLSGEELQFVVEKVLRMFSKLDLQEIPPLVYQLLLLSAKGSKKTVLEGIISFFNQLDKRQKEEQRVPQSADLEVATVPLDQLRHVEGTVILHIVSAINLDQDIGEELIKHLKTEQQKDPGKALCPFSVSLLLSTAVKHRLQEQIFDFLKTSITRSCKDLQILQASKFLQDLCPQQYDVTAVILEVVKNSAFGWDHVTQGLVDLGFSLMESYEPKKSFGGKAAETNLGLSKMPAQQACKLGASILLETFKVHEPIRSDILEQVLNRVLTKAASPVSHFIDLLSNIVVSAPLVLQNSSSRVTETFDNLSFLPIDTVQGLLRAVQPLLKVSMSVRDSLILVLQKAIFSRQLDARKAAVAGFLLLLRNFKILGSLTSDQCDQAIGADQVQADVHACYNSAANEAFCLEILGSLRRCLSQQADVRLMLYEGFYDVLRRNSQLASSIMETLLSQIKQYYLPQQDLLPPLKLEGCIMAQGDQIFLQEPLAHLLCCIQHCLAWYKSTVHLCKGAEDEEEEEDVGFEQNFEEMLESVTRRMIKSELEDFELDKSADFSPSSGVGVKNNIYAIQVMGICEVLIEYNFKIGNFSKNKFEDVLGLFTCYNKLSEILKEKAGKNKSTLGNRIARSFLSMGFVSTLLTALFRDNAQSHEESLAVLRSSTEFMRYAVSVALQKVQQLEEMGQTDGPDGQNPEKMFQNLCKITRVLLWRYTSIPTAVEESGKKKGKSISLLCLEGLLRIFNTMQQLYAARIPQFLQALDITDGDAEEADINVTEKAAFQIRQFQRSLVNQLSSAEDDFNSKETQLLITILSTLSKLLDPGSQQFLQFLTWTVKICKENALEDLSCCKGLLTLLFSLHVLYKSPVSLLRELAQDIHACLGDIDQDVEIESRSHFAIVNVKTAAPTVCLLVLGQADKVLEEVDWLIKRLTILGSDTSEDSTQASNQTQALEKGVILQLGTLLTVFHELVQTALPAGSCVDSLLRSLSKTYAILTSLIKHYIQACRSTSNTVPGRLEKLVKLSGSHLTPQCYSFITYVQNIHSESLSFAEEKKKKKKEDETAVVSTVMAKVLRDTKPIPNLIFAIEQYEKFLIHLSKKSKVNLMQYMKLSTSRDFRINASMLDSVLQEQNTEDAENEPDNNQSGTAEQPDENQEPQKKRRRKK |  | binds |
